{"source": "paper PMC9596850", "about": "“Tonsillar Microbiome‐Derived Lantibiotics Induce Structural Changes of IL‐6 and IL‐21 Receptors and Modulate Host Immunity” (Advanced Science, 2022)", "key": {"[1]": {"target": "mouse IL-21 receptor protein with the Fc region of human IgG1 (mouse) (UniProt Q9JHX3)", "assay": "SPR; Biacore 8K; receptor immobilised on CM5 chip by amine coupling, 25 °C, PBS-P running buffer; analytes with 5% DMSO injected serially; steady-state affinity model"}, "[2]": {"target": "mouse IL-21 receptor protein with the Fc region of human IgG1 (mouse) (UniProt Q9JHX3)", "assay": "SPR; Biacore 8K; receptor immobilised on CM5 chip by amine coupling, 25 °C, PBS-P running buffer; analytes with 5% DMSO injected serially; steady-state affinity model", "remark": "listed apart in the source"}}, "note": "Like-named read-outs stand apart in the source and are kept apart here."}
{"substance": "salivaricin A2 (peptide)", "values": [{"measurement": "Kd", "setting": "[1]", "value": 12.6, "unit": "µM"}, {"measurement": "Kd", "setting": "[2]", "value": 29.4, "unit": "µM"}]}
